Source: the Human Domainome abundance scans (Beltran et al. 2025)
± gives the uncertainty stated by the source.

B1: Serine/threonine-protein kinase A-Raf, residues 21 to 89; numbered along this chain, P10398 (parent)
chain: VKVYLPNKQRTVVTVRDGMSVYDSLDKALKVRGLNQDCCVVYRLIKGRKTVTAWDTAIAPLDGEELIVE

Variants of: B1
Assay: abundance fitness (aPCA) (normalised: wild type 0, dead -1); higher = more abundant; growth selection in yeast, the domain comes from the species named
Conditions: Homo sapiens

Variant	abundance fitness
VKVYVPNKQRTVVTVRDGMSVYDSLDKALKVRGLNQDCCVVYRLIKGRKTVTAWDTAIAPLDGEELIVE [L5V]	-0.896 ± 0.12
VKVYRPNKQRTVVTVRDGMSVYDSLDKALKVRGLNQDCCVVYRLIKGRKTVTAWDTAIAPLDGEELIVE [L5R]	-1.1 ± 0.12
VKVYFPNKQRTVVTVRDGMSVYDSLDKALKVRGLNQDCCVVYRLIKGRKTVTAWDTAIAPLDGEELIVE [L5F]	0.102 ± 0.097
VKVYEPNKQRTVVTVRDGMSVYDSLDKALKVRGLNQDCCVVYRLIKGRKTVTAWDTAIAPLDGEELIVE [L5E]	-0.844 ± 0.21
VKVYAPNKQRTVVTVRDGMSVYDSLDKALKVRGLNQDCCVVYRLIKGRKTVTAWDTAIAPLDGEELIVE [L5A]	-0.772 ± 0.15
VKVYCPNKQRTVVTVRDGMSVYDSLDKALKVRGLNQDCCVVYRLIKGRKTVTAWDTAIAPLDGEELIVE [L5C]	-0.784 ± 0.14
VKVYQPNKQRTVVTVRDGMSVYDSLDKALKVRGLNQDCCVVYRLIKGRKTVTAWDTAIAPLDGEELIVE [L5Q]	-0.87 ± 0.21
VKVYKPNKQRTVVTVRDGMSVYDSLDKALKVRGLNQDCCVVYRLIKGRKTVTAWDTAIAPLDGEELIVE [L5K]	-0.99 ± 0.16
VKVYWPNKQRTVVTVRDGMSVYDSLDKALKVRGLNQDCCVVYRLIKGRKTVTAWDTAIAPLDGEELIVE [L5W]	0.113 ± 0.062
VKVYPPNKQRTVVTVRDGMSVYDSLDKALKVRGLNQDCCVVYRLIKGRKTVTAWDTAIAPLDGEELIVE [L5P]	-0.778 ± 0.18
VKVYSPNKQRTVVTVRDGMSVYDSLDKALKVRGLNQDCCVVYRLIKGRKTVTAWDTAIAPLDGEELIVE [L5S]	-0.818 ± 0.1
VKVYTPNKQRTVVTVRDGMSVYDSLDKALKVRGLNQDCCVVYRLIKGRKTVTAWDTAIAPLDGEELIVE [L5T]	-0.916 ± 0.13
VKVYMPNKQRTVVTVRDGMSVYDSLDKALKVRGLNQDCCVVYRLIKGRKTVTAWDTAIAPLDGEELIVE [L5M]	-0.064 ± 0.058
VKVYLPNSQRTVVTVRDGMSVYDSLDKALKVRGLNQDCCVVYRLIKGRKTVTAWDTAIAPLDGEELIVE [K8S]	-0.111 ± 0.04
VKVYLPNDQRTVVTVRDGMSVYDSLDKALKVRGLNQDCCVVYRLIKGRKTVTAWDTAIAPLDGEELIVE [K8D]	-0.133 ± 0.1
VKVYLPNGQRTVVTVRDGMSVYDSLDKALKVRGLNQDCCVVYRLIKGRKTVTAWDTAIAPLDGEELIVE [K8G]	0.16 ± 0.033
VKVYLPNAQRTVVTVRDGMSVYDSLDKALKVRGLNQDCCVVYRLIKGRKTVTAWDTAIAPLDGEELIVE [K8A]	-0.042 ± 0.048
VKVYLPNNQRTVVTVRDGMSVYDSLDKALKVRGLNQDCCVVYRLIKGRKTVTAWDTAIAPLDGEELIVE [K8N]	0.132 ± 0.073
VKVYLPNVQRTVVTVRDGMSVYDSLDKALKVRGLNQDCCVVYRLIKGRKTVTAWDTAIAPLDGEELIVE [K8V]	-0.723 ± 0.071
VKVYLPNIQRTVVTVRDGMSVYDSLDKALKVRGLNQDCCVVYRLIKGRKTVTAWDTAIAPLDGEELIVE [K8I]	-0.683 ± 0.16
VKVYLPNFQRTVVTVRDGMSVYDSLDKALKVRGLNQDCCVVYRLIKGRKTVTAWDTAIAPLDGEELIVE [K8F]	-0.363 ± 0.072
VKVYLPNRQRTVVTVRDGMSVYDSLDKALKVRGLNQDCCVVYRLIKGRKTVTAWDTAIAPLDGEELIVE [K8R]	-0.005 ± 0.04
VKVYLPNCQRTVVTVRDGMSVYDSLDKALKVRGLNQDCCVVYRLIKGRKTVTAWDTAIAPLDGEELIVE [K8C]	-0.243 ± 0.068
VKVYLPNHQRTVVTVRDGMSVYDSLDKALKVRGLNQDCCVVYRLIKGRKTVTAWDTAIAPLDGEELIVE [K8H]	-0.102 ± 0.11
VKVYLPNWQRTVVTVRDGMSVYDSLDKALKVRGLNQDCCVVYRLIKGRKTVTAWDTAIAPLDGEELIVE [K8W]	-0.355 ± 0.054
VKVYLPNPQRTVVTVRDGMSVYDSLDKALKVRGLNQDCCVVYRLIKGRKTVTAWDTAIAPLDGEELIVE [K8P]	-1.02 ± 0.18

Variant	abundance fitness
VKVYLPNLQRTVVTVRDGMSVYDSLDKALKVRGLNQDCCVVYRLIKGRKTVTAWDTAIAPLDGEELIVE [K8L]	-0.363 ± 0.037
VKVYLPNMQRTVVTVRDGMSVYDSLDKALKVRGLNQDCCVVYRLIKGRKTVTAWDTAIAPLDGEELIVE [K8M]	-0.107 ± 0.042
VKVYLPNQQRTVVTVRDGMSVYDSLDKALKVRGLNQDCCVVYRLIKGRKTVTAWDTAIAPLDGEELIVE [K8Q]	-0.031 ± 0.054
VKVYLPNEQRTVVTVRDGMSVYDSLDKALKVRGLNQDCCVVYRLIKGRKTVTAWDTAIAPLDGEELIVE [K8E]	0 ± 0.043
VKVYLPNTQRTVVTVRDGMSVYDSLDKALKVRGLNQDCCVVYRLIKGRKTVTAWDTAIAPLDGEELIVE [K8T]	-0.286 ± 0.052
VKVYLPGKQRTVVTVRDGMSVYDSLDKALKVRGLNQDCCVVYRLIKGRKTVTAWDTAIAPLDGEELIVE [N7G]	0.041 ± 0.026
VKVYLPMKQRTVVTVRDGMSVYDSLDKALKVRGLNQDCCVVYRLIKGRKTVTAWDTAIAPLDGEELIVE [N7M]	-0.406 ± 0.039
VKVYLPAKQRTVVTVRDGMSVYDSLDKALKVRGLNQDCCVVYRLIKGRKTVTAWDTAIAPLDGEELIVE [N7A]	-0.44 ± 0.041
VKVYLPIKQRTVVTVRDGMSVYDSLDKALKVRGLNQDCCVVYRLIKGRKTVTAWDTAIAPLDGEELIVE [N7I]	-0.936 ± 0.15
VKVYLPHKQRTVVTVRDGMSVYDSLDKALKVRGLNQDCCVVYRLIKGRKTVTAWDTAIAPLDGEELIVE [N7H]	-0.272 ± 0.065
VKVYLPQKQRTVVTVRDGMSVYDSLDKALKVRGLNQDCCVVYRLIKGRKTVTAWDTAIAPLDGEELIVE [N7Q]	-0.216 ± 0.071
VKVYLPLKQRTVVTVRDGMSVYDSLDKALKVRGLNQDCCVVYRLIKGRKTVTAWDTAIAPLDGEELIVE [N7L]	-0.735 ± 0.05
VKVYLPDKQRTVVTVRDGMSVYDSLDKALKVRGLNQDCCVVYRLIKGRKTVTAWDTAIAPLDGEELIVE [N7D]	0.039 ± 0.054
VKVYLPYKQRTVVTVRDGMSVYDSLDKALKVRGLNQDCCVVYRLIKGRKTVTAWDTAIAPLDGEELIVE [N7Y]	-0.19 ± 0.087
VKVYLPPKQRTVVTVRDGMSVYDSLDKALKVRGLNQDCCVVYRLIKGRKTVTAWDTAIAPLDGEELIVE [N7P]	-0.861 ± 0.1
VKVYLPSKQRTVVTVRDGMSVYDSLDKALKVRGLNQDCCVVYRLIKGRKTVTAWDTAIAPLDGEELIVE [N7S]	-0.321 ± 0.042
VKVYLPEKQRTVVTVRDGMSVYDSLDKALKVRGLNQDCCVVYRLIKGRKTVTAWDTAIAPLDGEELIVE [N7E]	-0.17 ± 0.036
VKVYLPVKQRTVVTVRDGMSVYDSLDKALKVRGLNQDCCVVYRLIKGRKTVTAWDTAIAPLDGEELIVE [N7V]	-0.929 ± 0.073
VKVYLPKKQRTVVTVRDGMSVYDSLDKALKVRGLNQDCCVVYRLIKGRKTVTAWDTAIAPLDGEELIVE [N7K]	-0.343 ± 0.055
VKVYLPFKQRTVVTVRDGMSVYDSLDKALKVRGLNQDCCVVYRLIKGRKTVTAWDTAIAPLDGEELIVE [N7F]	-0.49 ± 0.055
VKVYLPTKQRTVVTVRDGMSVYDSLDKALKVRGLNQDCCVVYRLIKGRKTVTAWDTAIAPLDGEELIVE [N7T]	-0.655 ± 0.072
VKVYLPCKQRTVVTVRDGMSVYDSLDKALKVRGLNQDCCVVYRLIKGRKTVTAWDTAIAPLDGEELIVE [N7C]	-0.521 ± 0.079
VKSYLPNKQRTVVTVRDGMSVYDSLDKALKVRGLNQDCCVVYRLIKGRKTVTAWDTAIAPLDGEELIVE [V3S]	-0.856 ± 0.09
VKRYLPNKQRTVVTVRDGMSVYDSLDKALKVRGLNQDCCVVYRLIKGRKTVTAWDTAIAPLDGEELIVE [V3R]	-0.808 ± 0.089
VKTYLPNKQRTVVTVRDGMSVYDSLDKALKVRGLNQDCCVVYRLIKGRKTVTAWDTAIAPLDGEELIVE [V3T]	-0.985 ± 0.15
VKWYLPNKQRTVVTVRDGMSVYDSLDKALKVRGLNQDCCVVYRLIKGRKTVTAWDTAIAPLDGEELIVE [V3W]	-0.877 ± 0.1

Variant	abundance fitness
VKYYLPNKQRTVVTVRDGMSVYDSLDKALKVRGLNQDCCVVYRLIKGRKTVTAWDTAIAPLDGEELIVE [V3Y]	-0.016 ± 0.14
VKVKLPNKQRTVVTVRDGMSVYDSLDKALKVRGLNQDCCVVYRLIKGRKTVTAWDTAIAPLDGEELIVE [Y4K]	0.069 ± 0.059
VKVCLPNKQRTVVTVRDGMSVYDSLDKALKVRGLNQDCCVVYRLIKGRKTVTAWDTAIAPLDGEELIVE [Y4C]	-0.366 ± 0.098
VKVILPNKQRTVVTVRDGMSVYDSLDKALKVRGLNQDCCVVYRLIKGRKTVTAWDTAIAPLDGEELIVE [Y4I]	-0.001 ± 0.15
VKVTLPNKQRTVVTVRDGMSVYDSLDKALKVRGLNQDCCVVYRLIKGRKTVTAWDTAIAPLDGEELIVE [Y4T]	-0.101 ± 0.061
VKVQLPNKQRTVVTVRDGMSVYDSLDKALKVRGLNQDCCVVYRLIKGRKTVTAWDTAIAPLDGEELIVE [Y4Q]	0.009 ± 0.059
VKVALPNKQRTVVTVRDGMSVYDSLDKALKVRGLNQDCCVVYRLIKGRKTVTAWDTAIAPLDGEELIVE [Y4A]	-0.217 ± 0.061
VKVSLPNKQRTVVTVRDGMSVYDSLDKALKVRGLNQDCCVVYRLIKGRKTVTAWDTAIAPLDGEELIVE [Y4S]	-0.022 ± 0.047
VKVLLPNKQRTVVTVRDGMSVYDSLDKALKVRGLNQDCCVVYRLIKGRKTVTAWDTAIAPLDGEELIVE [Y4L]	0.068 ± 0.042
VKVHLPNKQRTVVTVRDGMSVYDSLDKALKVRGLNQDCCVVYRLIKGRKTVTAWDTAIAPLDGEELIVE [Y4H]	0.048 ± 0.094
VKVGLPNKQRTVVTVRDGMSVYDSLDKALKVRGLNQDCCVVYRLIKGRKTVTAWDTAIAPLDGEELIVE [Y4G]	-0.663 ± 0.069
VKVFLPNKQRTVVTVRDGMSVYDSLDKALKVRGLNQDCCVVYRLIKGRKTVTAWDTAIAPLDGEELIVE [Y4F]	-0.063 ± 0.077
VKVWLPNKQRTVVTVRDGMSVYDSLDKALKVRGLNQDCCVVYRLIKGRKTVTAWDTAIAPLDGEELIVE [Y4W]	-0.045 ± 0.05
VKVRLPNKQRTVVTVRDGMSVYDSLDKALKVRGLNQDCCVVYRLIKGRKTVTAWDTAIAPLDGEELIVE [Y4R]	0 ± 0.035
VKVDLPNKQRTVVTVRDGMSVYDSLDKALKVRGLNQDCCVVYRLIKGRKTVTAWDTAIAPLDGEELIVE [Y4D]	-0.601 ± 0.11
VKVVLPNKQRTVVTVRDGMSVYDSLDKALKVRGLNQDCCVVYRLIKGRKTVTAWDTAIAPLDGEELIVE [Y4V]	0.011 ± 0.047
VKVMLPNKQRTVVTVRDGMSVYDSLDKALKVRGLNQDCCVVYRLIKGRKTVTAWDTAIAPLDGEELIVE [Y4M]	0.032 ± 0.06
VKVELPNKQRTVVTVRDGMSVYDSLDKALKVRGLNQDCCVVYRLIKGRKTVTAWDTAIAPLDGEELIVE [Y4E]	-0.133 ± 0.048
VKVPLPNKQRTVVTVRDGMSVYDSLDKALKVRGLNQDCCVVYRLIKGRKTVTAWDTAIAPLDGEELIVE [Y4P]	-0.96 ± 0.23
VKVYLLNKQRTVVTVRDGMSVYDSLDKALKVRGLNQDCCVVYRLIKGRKTVTAWDTAIAPLDGEELIVE [P6L]	-0.804 ± 0.21
VKVYLHNKQRTVVTVRDGMSVYDSLDKALKVRGLNQDCCVVYRLIKGRKTVTAWDTAIAPLDGEELIVE [P6H]	-0.683 ± 0.34
VKVYLWNKQRTVVTVRDGMSVYDSLDKALKVRGLNQDCCVVYRLIKGRKTVTAWDTAIAPLDGEELIVE [P6W]	-1.01 ± 0.37
VKVYLGNKQRTVVTVRDGMSVYDSLDKALKVRGLNQDCCVVYRLIKGRKTVTAWDTAIAPLDGEELIVE [P6G]	-0.463 ± 0.28
VKVYLSNKQRTVVTVRDGMSVYDSLDKALKVRGLNQDCCVVYRLIKGRKTVTAWDTAIAPLDGEELIVE [P6S]	-0.233 ± 0.24
VKVYLCNKQRTVVTVRDGMSVYDSLDKALKVRGLNQDCCVVYRLIKGRKTVTAWDTAIAPLDGEELIVE [P6C]	-0.55 ± 0.24
VKVYLQNKQRTVVTVRDGMSVYDSLDKALKVRGLNQDCCVVYRLIKGRKTVTAWDTAIAPLDGEELIVE [P6Q]	-0.363 ± 0.17
